Assay results: paper PMC4853038

What was measured:
[1] = co-transfection of WT and mutant, 293T-EmGFP syncytia; conditions: glycan lost; control: WT syncytin-2 plus empty vector
[2] = Western blot of 293T-EmGFP lysates; conditions: glycan lost; control: wild type
[3] = syncytia formation in 293T-EmGFP cells, 36 h; conditions: glycan lost; control: wild type

| Substance | other: fusogenic activity of co-expressed wild type [1] | expression_or_secretion [2] | other: fusogenic activity, other: fusion score (−, +, ++) [3] |
| --- | --- | --- | --- |
| syncytin-2: N133Q | decreases | no change | – |
| syncytin-2: N146Q | – | no change | no change |
| syncytin-2: N177Q | – | no change | no change |
| syncytin-2: N220Q | – | no change | no change |
| syncytin-2: N241Q | – | no change | no change |
| syncytin-2: N247Q | – | no change | no change |
| syncytin-2: N332Q | – | no change | increases |
| syncytin-2: N443Q | decreases | no change | – |
